Source: patent US11572572B2, “A138T mutation-containing plant EPSPS mutant, and encoding gene and application thereof” (GEVOTO LLC, priority 2017, dated 2023)
Numbering of substitutions follows the chain as printed.

B1: R0: wild-type Oryza sativa EPSPS (SEQ ID NO: 5), encoding gene SEQ ID NO: 14; control group of Example 5 (protein, listed as Oryza sativa)
chain: MASNAAAAAAKAEEIVLQPIREISGAVQLPGSKSLSNRILLLSALSEGTTVVDNLLNSEDVHYMLEALKALGLSVEADKVAKRAVVVGCGGKFPVEKDAKEEVQLFLGNAGTAMRPLTAAVTAAGGNATYVLDGVPRMRERPIGDLVVGLKQLGADVDCFLGTECPPVRVKGIGGLPGGKVKLSGSISSQYLSALLMAAPLALGDVEIEIIDKLISIPYVEMTLRLMERFGVKAEHSDSWDRFYIKGGQKYKSPGNAYVEGDASSASYFLAGAAITGGTVTVQGCGTTSLQGDVKFAEVLEMMGAKVTWTDTSVTVTGPPREPYGKKHLKAVDVNMNKMPDVAMTLAVVALFADGPTAIRDVASWRVKETERMVAIRTELTKLGASVEEGPDYCIITPPEKLNITAIDTYDDHRMAMAFSLAACADVPVTIRDPGCTRKTFPNYFDVLSTFVRN
B2: R2: Oryza sativa EPSPS mutant having only the G111(96)A mutation (SEQ ID NO: 2), encoding gene SEQ ID NO: 16 (protein)
chain: B1 chain with G111A
modifications: Oryza sativa EPSPS mutant with only G111(96)A mutation
B3: R1: Oryza sativa EPSPS mutant I with A155(138)T mutation (SEQ ID NO: 6), encoding gene SEQ ID NO: 15 (protein)
chain: B1 chain with A155T
modifications: Oryza sativa EPSPS mutant with mutation A155(138)T

Assays:
[1] = test system: double-knockout Escherichia coli strain (EDCE); assay: Growth of double-knockout E. coli (EDCE) transformed with Oryza sativa EPSPS genes in glyphosate media (Example 5); type: cell-based; conditions: Example 5, FIG. 1
Description: An Escherichia coli strain transformed with the Oryza sativa EPSPS mutant I-encoding gene according to Example 1 was used as Experimental Group 1 (having only the A155(138)T mutation).
An Escherichia coli strain transformed with the Oryza sativa EPSPS mutant II-encoding gene according to Example 2 was used as Experimental Group 3 (having the G111(96)A mutation and A155(138)T mutation).
An Escherichia coli strain transformed with a wild-type Oryza sativa EPSPS-encoding gene (SEQ ID NO: 14, encoding wild-type Oryza sativa EPSPS set forth in SEQ ID NO: 5) was used as a control group.
The glyphosate resistance of the Oryza sativa EPSPS mutant I-encoding gene and the encoded Oryza sativa EPSPS mutant I in Escherichia coli, and the glyphosate resistance of the Oryza sativa EPSPS mutant II-encoding gene and the encoded Oryza sativa EPSPS mutant II in Escherichia coli were verified by detecting the growth statuses of the transformed Escherichia coli in media containing different concentrations of glyphosate (0 mM, 1 mM, 2 mM, 20 mM) (media obtained by using M9 as a basal medium and then adding certain concentrations of antibiotics Spec (Spectinomycin), Gen (Gentamycin), and Amp (Ampicillin) and different concentrations of glyphosate).
Here, the Escherichia coli strain used was an double-knockout Escherichia coli strain (Escherichia coli strain DH5a from which an EPSPS gene and a C-P Lyase gene were knocked out, named EDCE, which may be prepared by a method with reference to Chinese Patent Application No. 2016103256926).
The detection was carried out by a method well known in the art, which was briefly described below. Gene encoding Oryza sativa EPSPS mutants was synthesized by a chemical synthesis method, wherein enzymatic digestion sites (Pacl and Sbfl) were introduced at both ends of the gene. The gene were enzymatically cleaved and then ligated in the presence of ligase to an expression vector (e.g., pADV5 vector having a structure as shown in FIG. 4) subjected to the same enzymatic digestion treatment, and then were transformed into the double-knockout Escherichia coli strain. After verification, positive clones were picked out and inoculated and grown in media containing glyphosate. The growth statuses were observed.

[2] = test system: transgenic rice seedlings; assay: Glyphosate resistance of EPSPS mutants in transgenic rice sprayed with glyphosate (Example 8); type: in vivo, rice (Nipponbare); conditions: for glyphosate resistance of transformed rice seedlings (in words): after spraying with 1× glyphosate
Description: The glyphosate resistance of the EPSPS mutants of the above examples in transgenic rice was detected by the following method.
Plasmids of monoclonal resistant strain comprising pADV5-EPSPS of Examples 1-4 (containing the EPSPS mutant genes) were extracted in accordance with a conventional method. They were subjected to double enzymatic digestion with Pacl and BstEII to recover small fragments, and then the small fragments were ligated, using T4 DNA ligase, to a pGVP1 vector subjected to double enzymatic digestion in the same manner, to obtain a pGVP1-EPSPS vector having a structure as shown in FIG. 8.
The pGVP1-EPSPS vector was transformed into EHA105 (Agrobacterium tumefaciens) competent cells, and single clones were picked out for colony PCR detection to obtain positive strains. Then, the positive strains were inoculated into and propagated in 1 mL of a YEP medium containing 50 μg·mL^−1 kanamycin and 50 μg·mL^−1 rifampicin, and stored at −80° C. or used in subsequent experiments.
400 ul of a strain containing the target gene vector stored at −80° C. was added to a culture dish with a solid medium containing YEP+50 μg/mL rifampicin+50 μg/mL kanamycin and cultured in the dark at 28° C. for 24 hours, and then the bacterium was added to an infection medium and adjusted to OD=0.2 as an infection solution.
Disinfection and Pre-culture: seeds of mature rice (Nipponbare) were manually dehulled. Full seeds with no bacterial plaques were selected and disinfected in accordance with the following steps: the seeds were placed in a 50 ml sterile centrifuge tube and disinfected with the added 70% ethanol in water for 30 seconds, ethanol solution was poured out, and the seeds were washed once with sterile water; 10 to 20 ml of 2.6% sodium hypochlorite solution was added to soak and disinfect the seeds for 20 minutes. The sodium hypochlorite solution was poured out, and the seeds were soaked and washed with sterile water for 6 or 7 times, for 3 minutes each time.
Induction and Subculture: the seeds were placed on and blotted with sterile filter paper, and the mature embryos were placed in an induction medium, with 12 embryos per dish. After the operation was completed, the culture dishes were sealed with parafilm and underwent culturing in the dark at 30° C. for 21 to 28 days. Callus tissue was transferred to a fresh medium and continued to be cultured for about 7 to 14 days. Spherical callus tissue with a dimension of 1 to 2 mm was taken as an infection receptor.
The callus tissue was placed into a centrifuge tube or culture cup, infected in the prepared Agrobacterium suspension added thereto for 10 minutes, and shaken several times during the period; the bacterial solution was poured out, the callus tissue was taken out and placed on sterile filter paper for absorbing the bacterial solution from its surface (for about 30 minutes); the callus tissue was placed on sterile filter paper in culture dishes and cultured in the dark at 25° C. for 2 or 3 days.
Recovery Culture: the co-cultured callus tissue was inoculated on a recovery medium and cultured in the dark at 30° C. for 5 to 7 days.
Primary Screening: the callus was transferred to screening medium 1 (51) and cultured in the dark at 30° C. for 14 days.
Secondary Screening: the callus was then transferred to screening medium 2 (S2) and cultured in the dark at 30° C. for 14 days.
Primary Differentiation: the screened resistant callus tissue was transferred to a differentiation medium and cultured for about 21 days at 30° C. under exposure to light for 19 hours.
Secondary Differentiation: new young shoots were selected and moved to a fresh differentiation medium and continued to be cultured for about 21 days.
When the new seedlings grew to about 2 cm, they were moved to a rooting medium and cultured for 3 to 4 weeks at 30° C. under exposure to light (for 16/8 h). […]

[3] = medium containing 1 mM glyphosate
[4] = medium containing 2 mM glyphosate
[5] = medium containing 20 mM glyphosate
[6] = 1X dose glyphosate (1,060 g/ha), day 10 after spraying
[7] = 2X dose glyphosate (2,120 g/ha) on survivors of 1X, after another 10 days
[8] = 5X dose glyphosate (5,300 g/ha) on survivors of 2X, after additional 10 days
[9] = 20X dose glyphosate (21,200 g/ha) on survivors of 5X, after further 10 days

Row | Molecule | growth status of transformed Escherichia coli [1, 3] | growth status of transformed Escherichia coli [1, 4] | growth status of transformed Escherichia coli [1, 5] | % ++&+++ (percentage of moderately and highly glyphosate resistant plants in total plants observed) [2, 6] [%] | plant number with resistance + (low glyphosate resistant) [2, 6] | plant number with resistance ++ (moderately glyphosate resistant) [2, 6] | plant number with resistance +++ (highly glyphosate resistant) [2, 6] | % ++&+++ (percentage of moderately and highly glyphosate resistant plants in total plants observed) [2, 7] [%] | plant number with resistance + (low glyphosate resistant) [2, 7] | plant number with resistance ++ (moderately glyphosate resistant) [2, 7] | plant number with resistance +++ (highly glyphosate resistant) [2, 7] | plant number with resistance − (non-glyphosate resistant, withered or dead) [2, 7] | % ++&+++ (percentage of moderately and highly glyphosate resistant plants in total plants observed) [2, 8] [%] | plant number with resistance + (low glyphosate resistant) [2, 8] | plant number with resistance ++ (moderately glyphosate resistant) [2, 8] | plant number with resistance +++ (highly glyphosate resistant) [2, 8] | plant number with resistance − (non-glyphosate resistant, withered or dead) [2, 8] | % ++&+++ (percentage of moderately and highly glyphosate resistant plants in total plants observed) [2, 9] [%] | plant number with resistance + (low glyphosate resistant) [2, 9] | plant number with resistance ++ (moderately glyphosate resistant) [2, 9] | other results
1 | B1 | could not grow | could not grow | could not grow | 0.0 | 1 | 0 | 0 | 0.0 | 0 | 0 | 0 | 31 | 0.0 | 0 | 0 | 0 | 31 | 0.0 | 0 | 0 | growth status of transformed Escherichia coli ([1]; medium containing 0 mM glyphosate): could grow; plant number with resistance +++ (highly glyphosate resistant) [2, 9]: 0; plant number with resistance − (non-glyphosate resistant, withered or dead) [2, 9]: 31; glyphosate resistance of transformed rice seedlings (in words) [2]: all had no resistance
2 | B2 | showed bacterial plaques | could not grow | could not grow | 69.2 | 2 | 1 | 8 | 61.5 | 2 | 2 | 6 | 3 | 46.2 | 2 | 3 | 3 | 5 | 15.4 | 4 | 1 | plant number with resistance +++ (highly glyphosate resistant) [2, 9]: 1; plant number with resistance − (non-glyphosate resistant, withered or dead) [2, 9]: 7
3 | B3 | showed bacterial plaques | could not grow | could not grow | 58.1 | 8 | 7 | 11 | 0.0 | 5 | 0 | 0 | 26 | 0.0 | 1 | 0 | 0 | 30 | 0.0 | 0 | 0 | survival of transformed rice seedlings (in words) ([2]; 2× and 5× glyphosate doses): all of them survived; plant number with resistance +++ (highly glyphosate resistant) [2, 9]: 0; plant number with resistance − (non-glyphosate resistant, withered or dead) [2, 9]: 31; glyphosate resistance of transformed rice seedlings (in words) [2]: significantly better glyphosate resistance than that of R0
